These results are taken from publication PMC4599368 (Cell reports, 2015).

To fix the notation:
B1: EBOV NP residues 25–457 ([change]) (domain or fragment)
chain: LTAGLSVQQGIVRQRVIPVYQVNNLEEICQLIIQAFEAGVDFQESADSFLLMLCLHHAYQGDYKLFLESGAVKYLEGHGFRFEVKKRDGVKRLEELLPAVSSGKNIKRTLAAMPEEETTEANAGQFLSFASLFLPKLVVGEKACLEKVQRQIQVHAEQGLIQYPTAWQSVGHMMVIFRLMRTNFLIKFLLIHQGMHMVAGHDANDAVISNSVAQARFSGLLIVKTVLDHILQKTERGVRLHPLARTAKVKNEVNSFKAALSSLAKHGEYAPFARLLNLSGVNNLEHGLFPQLSAIALGVATAHGSTLAGVNVGEQYQQLREAATEAEKQLQQYAESRELDHLGLDDQEKKILMNFHQKKNEISFQQTNAMVTLRKERLAKLTEAITAASLPKTSGHYDDDDDIPFPGPINDDDNPGHQDDDPTDSQDTTIPDV
B2: EBOV VP35 1–168 (domain or fragment)
chain: MTTRTKGRGHTAATTQNDRMPGPELSGWISEQLMTGRIPVSDIFCDIENNPGLCYASQMQQTKPNPKTRNSQTQTDPICNHSFEEVVQTLASLATVVQQQTIASESLEQRITSLENGLKPVYDMAKTISSLNRVCAEMVAKYDLLVMTTGRATATAAATEAYWAEHGQ

Data set [1] concerns the molecule itself. Kind of data set: SEC.
Data set [2] concerns the target B1. Description: ITC. Background: In ITC the heat of successive injections is recorded.

For the molecule B1, in data set [1], the binding result is “binds”.
With GWISEQLMTGRIPVSDIFCDIE [EBOV VP35 peptide 27–48], the “fold reduction in binding affinity relative to NPBP” value in data set [2] turned out to be 6.5 fold.
On the same count and under the same terms, the result for MTTRTKGRGHTAATTQNDRMPGPELSGWISEQLMTGRIPVSDIFC [EBOV VP35 peptide 1–45] reads 1.5 fold.
In the case of B2, in data set [2], the binding result is recorded as “binds”.
